This is an account of results in paper PMC10412584, “Molecular reshaping of phage-displayed Interleukin-2 at beta chain receptor interface to obtain potent super-agonists with improved developability profiles” (Communications Biology, 2023).

B1: 81DPQDLIE87 + I92L(K35E)/Fc (Fc fusion, human, UniProt P60568 21-153, looked up)
chain: APTSSSTKKTQLQLEHLLLDLQMILNGINNYKNPELTRMLTFKFYMPKKATELKHLQCLEEELKPLEEVLNLAQSKNFHLDPQDLIENINVLVLELKGSETTFMCEYADETATIVEFLNRWITFCQSIISTLT
notes: human interleukin-2 whose segment 81-87 reads DPQDLIE, with I92L; the first two aa (Ala-Pro) are present in the Fc constructs; source: HEK-293T adapted to suspension, transient transfection, purified from supernatant (protein A)
B2: 81VPEDLIE87(K35E)/Fc (Fc fusion, human, UniProt P60568 21-153, looked up)
chain: APTSSSTKKTQLQLEHLLLDLQMILNGINNYKNPELTRMLTFKFYMPKKATELKHLQCLEEELKPLEEVLNLAQSKNFHLVPEDLIENINVIVLELKGSETTFMCEYADETATIVEFLNRWITFCQSIISTLT
notes: human interleukin-2 whose segment 81-87 reads VPEDLIE; the first two aa (Ala-Pro) are present in the Fc constructs; source: HEK-293T adapted to suspension, transient transfection, purified from supernatant (protein A)
B3: 80FDPHDVVE87 + I92L + V93L(K35E)/Fc (Fc fusion, human, UniProt P60568 21-153, looked up)
chain: APTSSSTKKTQLQLEHLLLDLQMILNGINNYKNPELTRMLTFKFYMPKKATELKHLQCLEEELKPLEEVLNLAQSKNFHFDPHDVVENINVLLLELKGSETTFMCEYADETATIVEFLNRWITFCQSIISTLT
notes: the first two aa (Ala-Pro) are present in the Fc constructs; also called fusion protein derived from phage clone 1A; source: HEK-293T adapted to suspension, transient transfection, purified from supernatant (protein A)
B4: 81VPEDLIE87 + I92L(K35E)/Fc (Fc fusion, human, UniProt P60568 21-153, looked up)
chain: APTSSSTKKTQLQLEHLLLDLQMILNGINNYKNPELTRMLTFKFYMPKKATELKHLQCLEEELKPLEEVLNLAQSKNFHLVPEDLIENINVLVLELKGSETTFMCEYADETATIVEFLNRWITFCQSIISTLT
notes: human interleukin-2 whose segment 81-87 reads VPEDLIE, with I92L; the first two aa (Ala-Pro) are present in the Fc constructs; source: HEK-293T adapted to suspension, transient transfection, purified from supernatant (protein A)
B5: 80FDPEDVVE87 + I92L(K35E)/Fc (Fc fusion, human, UniProt P60568 21-153, looked up)
chain: APTSSSTKKTQLQLEHLLLDLQMILNGINNYKNPELTRMLTFKFYMPKKATELKHLQCLEEELKPLEEVLNLAQSKNFHFDPEDVVENINVLVLELKGSETTFMCEYADETATIVEFLNRWITFCQSIISTLT
notes: the first two aa (Ala-Pro) are present in the Fc constructs; source: HEK-293T adapted to suspension, transient transfection, purified from supernatant (protein A)
B6: 80VPPEDLIE87 + I92L(K35E)/Fc (Fc fusion, human, UniProt P60568 21-153, looked up)
chain: APTSSSTKKTQLQLEHLLLDLQMILNGINNYKNPELTRMLTFKFYMPKKATELKHLQCLEEELKPLEEVLNLAQSKNFHVPPEDLIENINVLVLELKGSETTFMCEYADETATIVEFLNRWITFCQSIISTLT
notes: the first two aa (Ala-Pro) are present in the Fc constructs; also called variant 2B further optimized by incorporating S87E; source: HEK-293T adapted to suspension, transient transfection, purified from supernatant (protein A)
B7: 80FDPADVVE87 + I92L(K35E)/Fc (Fc fusion, human, UniProt P60568 21-153, looked up)
chain: APTSSSTKKTQLQLEHLLLDLQMILNGINNYKNPELTRMLTFKFYMPKKATELKHLQCLEEELKPLEEVLNLAQSKNFHFDPADVVENINVLVLELKGSETTFMCEYADETATIVEFLNRWITFCQSIISTLT
notes: as for B5
B8: H9(K35E)/Fc in which F92 was replaced by the phage-selected Leu (Fc fusion, human, UniProt P60568 21-153, looked up)
chain: APTSSSTKKTQLQLEHLLLDLQMILNGINNYKNPELTRMLTFKFYMPKKATELKHLQCLEEELKPLEEVLNLAQSKNFHFDPRDVVSNINVLVLELKGSETTFMCEYADETATIVEFLNRWITFCQSIISTLT
notes: human interleukin-2 with the H9 mutations except that residue 92 is Leu; the first two aa (Ala-Pro) are present in the Fc constructs; also called F92L-containing protein; source: HEK-293T adapted to suspension, transient transfection, purified from supernatant (protein A)
B9: 80VPPEDLIA87 + I92L(K35E)/Fc (Fc fusion, human, UniProt P60568 21-153, looked up)
chain: APTSSSTKKTQLQLEHLLLDLQMILNGINNYKNPELTRMLTFKFYMPKKATELKHLQCLEEELKPLEEVLNLAQSKNFHVPPEDLIANINVLVLELKGSETTFMCEYADETATIVEFLNRWITFCQSIISTLT
notes: as for B5
B10: H9(K35E)/Fc in which F92 was replaced by the original Ile (Fc fusion, human, UniProt P60568 21-153, looked up)
chain: APTSSSTKKTQLQLEHLLLDLQMILNGINNYKNPELTRMLTFKFYMPKKATELKHLQCLEEELKPLEEVLNLAQSKNFHFDPRDVVSNINVIVLELKGSETTFMCEYADETATIVEFLNRWITFCQSIISTLT
notes: human interleukin-2 with the H9 mutations except that residue 92 is the original Ile; the first two aa (Ala-Pro) are present in the Fc constructs; also called F92I-containing protein; source: HEK-293T adapted to suspension, transient transfection, purified from supernatant (protein A)
B11: 81DPQDLIE87(K35E)/Fc (Fc fusion, human, UniProt P60568 21-153, looked up)
chain: APTSSSTKKTQLQLEHLLLDLQMILNGINNYKNPELTRMLTFKFYMPKKATELKHLQCLEEELKPLEEVLNLAQSKNFHLDPQDLIENINVIVLELKGSETTFMCEYADETATIVEFLNRWITFCQSIISTLT
notes: human interleukin-2 whose segment 81-87 reads DPQDLIE; the first two aa (Ala-Pro) are present in the Fc constructs; source: HEK-293T adapted to suspension, transient transfection, purified from supernatant (protein A)
B12: H9(K35E)/Fc (Fc fusion, human, UniProt P60568 21-153, looked up)
chain: APTSSSTKKTQLQLEHLLLDLQMILNGINNYKNPELTRMLTFKFYMPKKATELKHLQCLEEELKPLEEVLNLAQSKNFHFDPRDVVSNINVFVLELKGSETTFMCEYADETATIVEFLNRWITFCQSIISTLT
notes: human interleukin-2 with the mutations of H9 superkine and K35E; the first two aa (Ala-Pro) are present in the Fc constructs; Heavily aggregated in SEC; also called H9(K35)/Fc; fusion protein based on H9 superkine; source: HEK-293T adapted to suspension, transient transfection, purified from supernatant (protein A)

The target in one assay is T1, recombinant fusion protein comprising human IL-2R beta subunit extracellular domain and mouse IgG2a Fc (human, UniProt P14784 27-240).
T1 construct: human IL-2 receptor beta subunit (CD122), extracellular domain; also called IL-2R beta/mFc; IL-2R beta ECD/mouse IgG2a Fc
T1 sequence (looked up): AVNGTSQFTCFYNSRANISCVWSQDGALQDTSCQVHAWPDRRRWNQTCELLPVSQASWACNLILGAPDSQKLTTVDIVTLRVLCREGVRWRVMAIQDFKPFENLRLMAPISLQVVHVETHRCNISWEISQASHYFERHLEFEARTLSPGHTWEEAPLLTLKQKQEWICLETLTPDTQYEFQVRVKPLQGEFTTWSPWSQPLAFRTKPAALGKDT
The experiment in a line: ELISA; polyvinyl chloride plates coated with IL-2R beta ECD/mouse IgG2a Fc at 10 µg/mL in PBS; Fc-fusion proteins diluted in M-PBS, 1 h at RT; detected with anti-human IgG-HRP. The following applies: both partners purified. A general note: In an ELISA, binding on a coated surface is turned into a signal by an enzyme label.
Take B1: the binding result is recorded as “binds”.
On the same count and under the same terms, in the case of B2 it was “binds”.
Still for that read-out and setting: to B3 belongs “binds”.
Same read-out and setting: in the case of B4 it was “binds”; in that of B5, “binds”.
B6: the binding result is “binds”.
Same read-out and setting: to B7 belongs “binds”; to B8, “binds”; to B9, “binds”.
Same read-out and setting: in the case of B10 it was “binds”.
On the same count and under the same terms, in the case of B11 it was “binds”.

Another assay deals with T1, recombinant fusion protein comprising …. As to the kind of experiment: SPR; Biacore T200; IL-2R beta ECD/mouse IgG2a Fc amine-coupled to a CM5 chip; Fc-fusion proteins 1-800 nmol/L injected at 15 µL/min in PBS with 0.05% Tween 20; single-cycle mode; global fit to the 1:1 model. The following applies: both partners purified.
For orientation: koff means a measure of how fast the partners let go of each other. Consider B12, for which the “fold decrease of KD against IL-2(K35E)/Fc” value is roughly 25 fold and the off-rate constant (koff) was roughly 0.0003 s⁻¹.
